These results are taken from paper PMC12313940, “Insights into a water-mediated catalytic triad architecture in CE20 carbohydrate esterases” (Nature Communications, 2025).

For orientation: Km means the substrate concentration at which the rate is half of its maximum. A word on the kcat: it is the maximal rate divided by the concentration of active sites.

The target of data set [1] is T1, Fl8CE20_II (Salinimicrobium marinum, UniProt A0A918SDW1, Y335N).
T1 construct: gene GCM10007103_17970; pET28a(+), N-terminal 6xHis tag, expressed in E. coli BL21(DE3), SGNH hydrolase with inserted ancillary domain
T1 sequence (A0A918SDW1 entry or part of it Y335N): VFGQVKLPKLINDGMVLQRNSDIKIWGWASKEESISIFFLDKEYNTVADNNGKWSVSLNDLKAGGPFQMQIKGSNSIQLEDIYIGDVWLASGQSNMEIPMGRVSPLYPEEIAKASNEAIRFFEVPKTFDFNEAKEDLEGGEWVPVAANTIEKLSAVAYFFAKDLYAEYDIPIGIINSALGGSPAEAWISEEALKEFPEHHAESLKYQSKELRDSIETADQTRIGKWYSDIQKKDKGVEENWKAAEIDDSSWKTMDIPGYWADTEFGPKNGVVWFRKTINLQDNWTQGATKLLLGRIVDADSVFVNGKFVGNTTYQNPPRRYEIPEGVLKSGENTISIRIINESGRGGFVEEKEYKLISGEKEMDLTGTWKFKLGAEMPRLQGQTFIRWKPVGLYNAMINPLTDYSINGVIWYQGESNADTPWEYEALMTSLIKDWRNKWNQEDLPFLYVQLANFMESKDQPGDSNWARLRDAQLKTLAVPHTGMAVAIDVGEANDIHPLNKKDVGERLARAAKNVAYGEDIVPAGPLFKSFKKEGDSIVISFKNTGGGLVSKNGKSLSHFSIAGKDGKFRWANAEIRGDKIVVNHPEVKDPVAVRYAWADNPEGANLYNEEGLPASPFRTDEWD
The data set can be described thus: p-nitrophenol release, absorbance […] nm, Michaelis-Menten fit. Type of data set: biochemical. Particulars: 50 mM Tris-HCl pH 8.0, 100 mM NaCl, 5% DMSO, room temperature.

A further data set addresses T2, PpCE20_II (Pedobacter psychrotolerans, UniProt A0A4R2HIK5).
T2 construct: gene EV200_102244; catalytic residues Ser114, Asp518, His520
The data set can be described thus: p-nitrophenolate release, stopped with acetonitrile, […] nm. Type of data set: biochemical. The settings on record: preferred temperature and pH of the enzyme.

Data set [2] has as its target T3, Fl8CE20_II (Salinimicrobium marinum, UniProt A0A918SDW1, K371M).
T3 construct: gene GCM10007103_17970; pET28a(+), N-terminal 6xHis tag, expressed in E. coli BL21(DE3), SGNH hydrolase with inserted ancillary domain
In words: p-nitrophenol release, absorbance […] nm, Michaelis-Menten fit. The data set is classed as biochemical. The settings on record: 50 mM Tris-HCl pH 8.0, 100 mM NaCl, 5% DMSO, room temperature.

Substrate in the data set “purified protein”: CC(=O)Oc1ccc([N+](=O)[O-])cc1
The data set can be described thus: purified protein. The data set is classed as biochemical, Salinimicrobium marinum. The settings on record: 50 mM Tris-HCl pH 8.0, 100 mM NaCl, 5% DMSO, room temperature.

T2 sequence (A0A4R2HIK5 entry or part of it): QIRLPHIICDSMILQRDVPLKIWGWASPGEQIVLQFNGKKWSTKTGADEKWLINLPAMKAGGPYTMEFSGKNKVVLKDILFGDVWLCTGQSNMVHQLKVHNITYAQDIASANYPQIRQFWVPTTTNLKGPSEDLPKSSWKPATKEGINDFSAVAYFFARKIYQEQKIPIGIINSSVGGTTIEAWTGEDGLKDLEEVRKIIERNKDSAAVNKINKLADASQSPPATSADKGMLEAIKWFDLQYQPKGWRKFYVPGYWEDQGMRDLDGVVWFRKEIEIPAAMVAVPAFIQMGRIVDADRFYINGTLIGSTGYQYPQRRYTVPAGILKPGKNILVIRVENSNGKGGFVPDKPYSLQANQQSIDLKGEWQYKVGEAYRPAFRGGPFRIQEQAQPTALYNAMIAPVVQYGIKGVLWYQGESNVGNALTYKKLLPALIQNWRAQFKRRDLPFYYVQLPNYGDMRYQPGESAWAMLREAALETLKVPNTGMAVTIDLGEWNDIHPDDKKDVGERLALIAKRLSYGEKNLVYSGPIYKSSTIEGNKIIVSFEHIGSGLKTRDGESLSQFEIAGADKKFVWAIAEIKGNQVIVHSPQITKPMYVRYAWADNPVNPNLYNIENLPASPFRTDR
T3 sequence (A0A918SDW1 entry or part of it K371M): as the sequence (A0A918SDW1 entry or part of it Y335N) above, with N316Y, K352M counted along it

`CC(=O)Oc1ccc([N+](=O)[O-])cc1` [pNP-acetate]: the KM result on Fl8CE20_II [1] was “mutation of Tyr334 to Asn in the ancillary domain resulted in a decrease in kcat”; on PpCE20_II it was “In terms of biochemical and kinetic behaviour, all enzymes showed similar properties”; at Fl8CE20_II [2] it was “slight reduction of kcat while showing the same KM as the mutant D513N”.

B1: Fl8CE20_II (Salinimicrobium marinum) (protein)
chain: VFGQVKLPKLINDGMVLQRNSDIKIWGWASKEESISIFFLDKEYNTVADNNGKWSVSLNDLKAGGPFQMQIKGSNSIQLEDIYIGDVWLASGQSNMEIPMGRVSPLYPEEIAKASNEAIRFFEVPKTFDFNEAKEDLEGGEWVPVAANTIEKLSAVAYFFAKDLYAEYDIPIGIINSALGGSPAEAWISEEALKEFPEHHAESLKYQSKELRDSIETADQTRIGKWYSDIQKKDKGVEENWKAAEIDDSSWKTMDIPGYWADTEFGPKNGVVWFRKTINLQDNWTQGATKLLLGRIVDADSVFVNGKFVGNTTYQYPPRRYEIPEGVLKSGENTISIRIINESGRGGFVEEKEYKLISGEKEMDLTGTWKFKLGAEMPRLQGQTFIRWKPVGLYNAMINPLTDYSINGVIWYQGESNADTPWEYEALMTSLIKDWRNKWNQEDLPFLYVQLANFMESKDQPGDSNWARLRDAQLKTLAVPHTGMAVAIDVGEANDIHPLNKKDVGERLARAAKNVAYGEDIVPAGPLFKSFKKEGDSIVISFKNTGGGLVSKNGKSLSHFSIAGKDGKFRWANAEIRGDKIVVNHPEVKDPVAVRYAWADNPEGANLYNEEGLPASPFRTDEWD
notes: pET28a(+), N-terminal 6xHis tag, expressed in E. coli BL21(DE3), SGNH hydrolase with inserted ancillary domain
As for B1, in “purified protein”, the Km amounted to 620 µM and the kcat turned out to be 9.70 s⁻¹.

B2: Fl8CE20_II (Salinimicrobium marinum; S435A) (protein)
chain: VFGQVKLPKLINDGMVLQRNSDIKIWGWASKEESISIFFLDKEYNTVADNNGKWSVSLNDLKAGGPFQMQIKGSNSIQLEDIYIGDVWLASGQSNMEIPMGRVSPLYPEEIAKASNEAIRFFEVPKTFDFNEAKEDLEGGEWVPVAANTIEKLSAVAYFFAKDLYAEYDIPIGIINSALGGSPAEAWISEEALKEFPEHHAESLKYQSKELRDSIETADQTRIGKWYSDIQKKDKGVEENWKAAEIDDSSWKTMDIPGYWADTEFGPKNGVVWFRKTINLQDNWTQGATKLLLGRIVDADSVFVNGKFVGNTTYQYPPRRYEIPEGVLKSGENTISIRIINESGRGGFVEEKEYKLISGEKEMDLTGTWKFKLGAEMPRLQGQTFIRWKPVGLYNAMINPLTDYSINGVIWYQGEANADTPWEYEALMTSLIKDWRNKWNQEDLPFLYVQLANFMESKDQPGDSNWARLRDAQLKTLAVPHTGMAVAIDVGEANDIHPLNKKDVGERLARAAKNVAYGEDIVPAGPLFKSFKKEGDSIVISFKNTGGGLVSKNGKSLSHFSIAGKDGKFRWANAEIRGDKIVVNHPEVKDPVAVRYAWADNPEGANLYNEEGLPASPFRTDEWD
notes: as for B1
B2: in the data set “purified protein”, the Km stood at 210 µM and the kcat was determined as 4.48 s⁻¹.

B3: Fl8CE20_II (Salinimicrobium marinum; R314E) (protein)
chain: VFGQVKLPKLINDGMVLQRNSDIKIWGWASKEESISIFFLDKEYNTVADNNGKWSVSLNDLKAGGPFQMQIKGSNSIQLEDIYIGDVWLASGQSNMEIPMGRVSPLYPEEIAKASNEAIRFFEVPKTFDFNEAKEDLEGGEWVPVAANTIEKLSAVAYFFAKDLYAEYDIPIGIINSALGGSPAEAWISEEALKEFPEHHAESLKYQSKELRDSIETADQTRIGKWYSDIQKKDKGVEENWKAAEIDDSSWKTMDIPGYWADTEFGPKNGVVWFRKTINLQDNWTQGATKLLLGEIVDADSVFVNGKFVGNTTYQYPPRRYEIPEGVLKSGENTISIRIINESGRGGFVEEKEYKLISGEKEMDLTGTWKFKLGAEMPRLQGQTFIRWKPVGLYNAMINPLTDYSINGVIWYQGESNADTPWEYEALMTSLIKDWRNKWNQEDLPFLYVQLANFMESKDQPGDSNWARLRDAQLKTLAVPHTGMAVAIDVGEANDIHPLNKKDVGERLARAAKNVAYGEDIVPAGPLFKSFKKEGDSIVISFKNTGGGLVSKNGKSLSHFSIAGKDGKFRWANAEIRGDKIVVNHPEVKDPVAVRYAWADNPEGANLYNEEGLPASPFRTDEWD
notes: as for B1
With B3, in the data set “purified protein”, the Km came out at 300 µM and the kcat turned out to be 4.67 s⁻¹.

B4: Fl8CE20_II (Salinimicrobium marinum; R314Q) (protein)
chain: VFGQVKLPKLINDGMVLQRNSDIKIWGWASKEESISIFFLDKEYNTVADNNGKWSVSLNDLKAGGPFQMQIKGSNSIQLEDIYIGDVWLASGQSNMEIPMGRVSPLYPEEIAKASNEAIRFFEVPKTFDFNEAKEDLEGGEWVPVAANTIEKLSAVAYFFAKDLYAEYDIPIGIINSALGGSPAEAWISEEALKEFPEHHAESLKYQSKELRDSIETADQTRIGKWYSDIQKKDKGVEENWKAAEIDDSSWKTMDIPGYWADTEFGPKNGVVWFRKTINLQDNWTQGATKLLLGQIVDADSVFVNGKFVGNTTYQYPPRRYEIPEGVLKSGENTISIRIINESGRGGFVEEKEYKLISGEKEMDLTGTWKFKLGAEMPRLQGQTFIRWKPVGLYNAMINPLTDYSINGVIWYQGESNADTPWEYEALMTSLIKDWRNKWNQEDLPFLYVQLANFMESKDQPGDSNWARLRDAQLKTLAVPHTGMAVAIDVGEANDIHPLNKKDVGERLARAAKNVAYGEDIVPAGPLFKSFKKEGDSIVISFKNTGGGLVSKNGKSLSHFSIAGKDGKFRWANAEIRGDKIVVNHPEVKDPVAVRYAWADNPEGANLYNEEGLPASPFRTDEWD
notes: as for B1
Consider B4, for which, in the data set “purified protein”, the Km stood at 40 µM and the kcat worked out at 1.3 s⁻¹.

B5: Fl8CE20_II (Salinimicrobium marinum; D514E) (protein)
chain: VFGQVKLPKLINDGMVLQRNSDIKIWGWASKEESISIFFLDKEYNTVADNNGKWSVSLNDLKAGGPFQMQIKGSNSIQLEDIYIGDVWLASGQSNMEIPMGRVSPLYPEEIAKASNEAIRFFEVPKTFDFNEAKEDLEGGEWVPVAANTIEKLSAVAYFFAKDLYAEYDIPIGIINSALGGSPAEAWISEEALKEFPEHHAESLKYQSKELRDSIETADQTRIGKWYSDIQKKDKGVEENWKAAEIDDSSWKTMDIPGYWADTEFGPKNGVVWFRKTINLQDNWTQGATKLLLGRIVDADSVFVNGKFVGNTTYQYPPRRYEIPEGVLKSGENTISIRIINESGRGGFVEEKEYKLISGEKEMDLTGTWKFKLGAEMPRLQGQTFIRWKPVGLYNAMINPLTDYSINGVIWYQGESNADTPWEYEALMTSLIKDWRNKWNQEDLPFLYVQLANFMESKDQPGDSNWARLRDAQLKTLAVPHTGMAVAIDVGEANEIHPLNKKDVGERLARAAKNVAYGEDIVPAGPLFKSFKKEGDSIVISFKNTGGGLVSKNGKSLSHFSIAGKDGKFRWANAEIRGDKIVVNHPEVKDPVAVRYAWADNPEGANLYNEEGLPASPFRTDEWD
notes: as for B1
On to B5, for which, in “purified protein”, the Km is 2300 µM and the kcat was 0.43 s⁻¹.

B6: Fl8CE20_II (Salinimicrobium marinum; D514Q) (protein)
chain: VFGQVKLPKLINDGMVLQRNSDIKIWGWASKEESISIFFLDKEYNTVADNNGKWSVSLNDLKAGGPFQMQIKGSNSIQLEDIYIGDVWLASGQSNMEIPMGRVSPLYPEEIAKASNEAIRFFEVPKTFDFNEAKEDLEGGEWVPVAANTIEKLSAVAYFFAKDLYAEYDIPIGIINSALGGSPAEAWISEEALKEFPEHHAESLKYQSKELRDSIETADQTRIGKWYSDIQKKDKGVEENWKAAEIDDSSWKTMDIPGYWADTEFGPKNGVVWFRKTINLQDNWTQGATKLLLGRIVDADSVFVNGKFVGNTTYQYPPRRYEIPEGVLKSGENTISIRIINESGRGGFVEEKEYKLISGEKEMDLTGTWKFKLGAEMPRLQGQTFIRWKPVGLYNAMINPLTDYSINGVIWYQGESNADTPWEYEALMTSLIKDWRNKWNQEDLPFLYVQLANFMESKDQPGDSNWARLRDAQLKTLAVPHTGMAVAIDVGEANQIHPLNKKDVGERLARAAKNVAYGEDIVPAGPLFKSFKKEGDSIVISFKNTGGGLVSKNGKSLSHFSIAGKDGKFRWANAEIRGDKIVVNHPEVKDPVAVRYAWADNPEGANLYNEEGLPASPFRTDEWD
notes: as for B1
Take B6: in “purified protein”, the Km came out at 9890 µM and the kcat came out at 0.18 s⁻¹.
